According to paper PMC8924211 (Nature Communications, 2022):
Positions count from the first letter of the chain named.

What was measured:
Assay in all cases: AlphaScreen or HTRF; saturation binding: HEK293 cells transfected with SNAP-tagged receptor (WT or mutant) and labelled with SNAP-Lumi4-Tb, incubated with increasing concentrations of galanin-A2 in the presence or absence of 100 uM unlabeled galanin, 1 h at room temperature; HTRF ratio 665 nm/620 nm
Settings in all cases: one partner purified
SNAP-GAL2R A170^ECL2S = molecular target: T1, SNAP-GAL2R A170^ECL2S (human, UniProt O43603 1-387, A170^ECL2S, Lumi4-Tb on the SNAP tag)
T1 construct: also called A170S; source: HEK293, transfected, on cells; not shown: SNAP tag, N-terminal, kept
T1 sequence (looked up): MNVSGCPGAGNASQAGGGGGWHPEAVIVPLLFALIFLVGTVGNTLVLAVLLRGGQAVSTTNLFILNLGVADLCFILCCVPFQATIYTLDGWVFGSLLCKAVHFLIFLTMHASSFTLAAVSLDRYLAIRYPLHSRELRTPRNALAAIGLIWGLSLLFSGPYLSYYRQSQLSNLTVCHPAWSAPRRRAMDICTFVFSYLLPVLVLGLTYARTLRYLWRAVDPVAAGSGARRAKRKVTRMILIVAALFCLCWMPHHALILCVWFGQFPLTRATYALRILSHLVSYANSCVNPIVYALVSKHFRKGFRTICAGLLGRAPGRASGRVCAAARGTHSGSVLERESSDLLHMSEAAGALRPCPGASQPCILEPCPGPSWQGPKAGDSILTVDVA

SNAP-GAL2R L172^ECL2A = molecular target: T2, SNAP-GAL2R L172^ECL2A (human, UniProt O43603 1-387, L172^ECL2A, Lumi4-Tb on the SNAP tag)
T2 construct: also called L172A; source: HEK293, transfected, on cells; not shown: SNAP tag, N-terminal, kept
T2 sequence (looked up): T1 sequence (looked up) with S170A, L172A

SNAP-GAL2R I256^6.55A = molecular target: T3, SNAP-GAL2R I256^6.55A (human, UniProt O43603 1-387, I256^6.55A, Lumi4-Tb on the SNAP tag)
T3 construct: also called I256A; source: HEK293, transfected, on cells; not shown: SNAP tag, N-terminal, kept
T3 sequence (looked up): T1 sequence (looked up) with S170A, I256A

SNAP-GAL2R L255^6.54A = molecular target: T4, SNAP-GAL2R L255^6.54A (human, UniProt O43603 1-387, L255^6.54A, Lumi4-Tb on the SNAP tag)
T4 construct: also called L255A; source: HEK293, transfected, on cells; not shown: SNAP tag, N-terminal, kept
T4 sequence (looked up): T1 sequence (looked up) with S170A, L255A

B1: galanin-A2 (full-length galanin labeled with the dye A2 on an additional cysteine at the C-terminal end) (peptide)
peptide: GWTLNSAGYLLGPHAVGNHRSFSDKNGLTSC
modifications: dye A2 on the additional C-terminal cysteine
notes: numbers count on: the mature protein; additional cysteine at the C-terminal end of the peptide, carries the dye A2; source: synthetic peptide (synthesized by Vazyme, China)
B1 showed a Kd (SNAP-GAL2R A170^ECL2S) of 33.5 nM, a Kd (SNAP-GAL2R L172^ECL2A) of 51.6 nM and a Kd (SNAP-GAL2R I256^6.55A) of 221 nM. It also gave a Kd (SNAP-GAL2R L255^6.54A) of 55.1 nM.
